# Data taken from article doi:10.1101/2025.07.31.667872 (bioRxiv, 2025).
# How the values were obtained:
# Conditions in all cases: both partners purified
# [1] = target: T1, RPN13 Pru (1–150), reduced (UniProt Q16186 1-150); test: ITC; RPN2 (940–953) in the syringe (156 μM), RPN13 Pru in the cell (15.6 μM); 25 °C, reducing buffer: 20 mM sodium phosphate, 50 mM NaCl, 10 mM βME, pH 6.0; one-site fit
# T1 construct: Kept in reducing ITC buffer (10 mM βME); also called redu RPN13^Pru; RPN13 (1–150); source: E. coli BL21(DE3) pLysS, purified (Talon resin, PreScission elution, Superdex 75); not shown: His6, N-terminal, cleaved
# [2] = target: T2, RPN13 Pru (1–150), oxidized (UniProt Q16186 1-150, oxidized with 0.05 % H2O2; the oxidized residues are not given); test: ITC; RPN2 (940–953) in the syringe (205.7 or 160 μM), RPN13 Pru in the cell (20.57 or 16 μM); 25 °C, non-reducing buffer: 20 mM sodium phosphate, 50 mM NaCl, pH 6.0; one-site fit
# T2 construct: RPN13 Pru domain, residues 1-150; also called oxi-RPN13^Pru; not shown: His6, N-terminal, cleaved
# [3] = target: T3, oxi-RPN13^Pru following incubation with 3-fold molar excess TXNL1^Trx (UniProt Q16186 1-150, oxidized with 0.05 % H2O2, then treated with TXNL1 Trx); test: as above
# T3 construct: RPN13 Pru domain, residues 1-150; source: E. coli BL21(DE3) pLysS, purified; not shown: His6, N-terminal, cleaved
# T3 sequence (Q16186 1-150): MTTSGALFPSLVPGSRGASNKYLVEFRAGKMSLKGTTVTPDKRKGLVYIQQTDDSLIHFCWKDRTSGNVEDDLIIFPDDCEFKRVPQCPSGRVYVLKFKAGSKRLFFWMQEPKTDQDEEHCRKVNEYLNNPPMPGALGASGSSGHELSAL
# T2 sequence (Q16186 1-150): as above
# T1 sequence (Q16186 1-150): as above
binder,measurement,setting,value
"QEPEPPEPFEYIDD (peptide, UniProt Q99460 940-953, looked up, The construct has a PreScission site after GST, but the methods tell only of elution as the GST fusion; ITC and NMR speak of the RPN2 peptide; also called RPN2 (940–953); RPN2^940–953) [RPN2 peptide (940–953)]",Kd,[1],12.4 ± 5.29 nM
same,Kd,[2],40 ± 15.3 nM
same,Kd,[3],18.9 ± 5.7 nM
